Residue numbers refer to the chain shown, from its start. Blank lines part the entries; values can stand above or below the binder they belong to.
Experiments:
[1] = target: T1, EGFR expressed on H292 cells (human, UniProt P00533 25-1210); assay: flow cytometry on H292 cells; antibody titrated, then 100 nM Biotin-h.EGF as the blocked ligand, detected with Streptavidin-FITC
T1 construct: whole, on cells; H292 cells also express c-Met; also called epidermal growth factor receptor
Description: (§1) H292 cells, which were human non-small cell lung cancer cells purchased from Procell, were capable of expressing EGFR and c-Met receptors. H292 cells were expanded to a suitable density, digested and detached from the cell culture flask, resuspended to 1×10⁶ cells/ml, added to a 96-well flow plate, 100 μL per well, and centrifuged for later use. The antibody to be tested was subjected to 3-fold dilution with PBS, starting from 200 nM, and the diluted sample was added to the 96-well flow plate with cells, 100 μL/well, and incubated at 25° C. for 60 min. […] Streptavidin-FITC (purchased from Jackson) was diluted 100 times with PBS and added to the plate, 100 µL/well, incubated at 4° C. for 30 min, and washed twice with PBS. 100 μL/well of PBS was added to resuspend the cells, then the cells were detected on a CytoFlex (Beckman) flow cytometer, and the corresponding MFI was calculated.

human c-MET protein = target: T2, human c-MET protein (human, UniProt P08581 25-932); assay: ForteBio (BLI) affinity assay, human c-Met protein
T2 construct: The construct is not described; also called cellular mesenchymal epithelial transition factor (c-Met) antigen
T2 sequence (P08581 25-932 limits assumed): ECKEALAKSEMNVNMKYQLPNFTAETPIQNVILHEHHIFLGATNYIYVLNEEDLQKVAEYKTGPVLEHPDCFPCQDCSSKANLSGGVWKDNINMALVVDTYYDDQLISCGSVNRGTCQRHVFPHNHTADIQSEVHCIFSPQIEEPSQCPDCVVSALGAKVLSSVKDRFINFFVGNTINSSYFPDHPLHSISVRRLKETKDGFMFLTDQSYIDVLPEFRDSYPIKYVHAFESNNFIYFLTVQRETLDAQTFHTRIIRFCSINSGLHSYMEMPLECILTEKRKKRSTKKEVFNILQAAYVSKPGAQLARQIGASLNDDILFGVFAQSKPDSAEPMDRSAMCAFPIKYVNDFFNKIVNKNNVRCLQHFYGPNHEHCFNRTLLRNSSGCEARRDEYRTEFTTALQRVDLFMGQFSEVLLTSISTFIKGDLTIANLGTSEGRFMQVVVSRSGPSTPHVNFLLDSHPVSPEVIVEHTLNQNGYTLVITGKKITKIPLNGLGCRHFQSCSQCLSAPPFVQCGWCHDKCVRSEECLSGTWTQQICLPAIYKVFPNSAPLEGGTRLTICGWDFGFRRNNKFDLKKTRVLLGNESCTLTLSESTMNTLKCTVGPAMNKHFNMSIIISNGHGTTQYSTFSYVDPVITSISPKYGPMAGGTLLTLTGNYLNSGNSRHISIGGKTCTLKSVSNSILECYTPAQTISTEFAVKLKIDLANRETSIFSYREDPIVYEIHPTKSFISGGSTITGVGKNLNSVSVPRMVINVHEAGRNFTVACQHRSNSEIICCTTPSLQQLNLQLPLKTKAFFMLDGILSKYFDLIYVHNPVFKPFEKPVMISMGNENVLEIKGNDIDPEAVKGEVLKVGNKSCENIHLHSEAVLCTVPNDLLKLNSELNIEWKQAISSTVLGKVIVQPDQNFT
Description: (§2) After the antibodies were prepared, the ForteBio affinity assay was performed according to the reported method (Estep, P et al., Determination of antibody-antigen affinity and epitope binding based on high-throughput methods. MAbs, 2013.5(2): p. 270-8).

monkey c-MET protein = target: T3, monkey c-MET protein (monkey, UniProt A0A2K5UM36 25-932); assay: ForteBio (BLI) affinity assay, monkey c-Met protein
T3 construct: The construct is not described
T3 sequence (A0A2K5UM36 entry or part of it limits assumed): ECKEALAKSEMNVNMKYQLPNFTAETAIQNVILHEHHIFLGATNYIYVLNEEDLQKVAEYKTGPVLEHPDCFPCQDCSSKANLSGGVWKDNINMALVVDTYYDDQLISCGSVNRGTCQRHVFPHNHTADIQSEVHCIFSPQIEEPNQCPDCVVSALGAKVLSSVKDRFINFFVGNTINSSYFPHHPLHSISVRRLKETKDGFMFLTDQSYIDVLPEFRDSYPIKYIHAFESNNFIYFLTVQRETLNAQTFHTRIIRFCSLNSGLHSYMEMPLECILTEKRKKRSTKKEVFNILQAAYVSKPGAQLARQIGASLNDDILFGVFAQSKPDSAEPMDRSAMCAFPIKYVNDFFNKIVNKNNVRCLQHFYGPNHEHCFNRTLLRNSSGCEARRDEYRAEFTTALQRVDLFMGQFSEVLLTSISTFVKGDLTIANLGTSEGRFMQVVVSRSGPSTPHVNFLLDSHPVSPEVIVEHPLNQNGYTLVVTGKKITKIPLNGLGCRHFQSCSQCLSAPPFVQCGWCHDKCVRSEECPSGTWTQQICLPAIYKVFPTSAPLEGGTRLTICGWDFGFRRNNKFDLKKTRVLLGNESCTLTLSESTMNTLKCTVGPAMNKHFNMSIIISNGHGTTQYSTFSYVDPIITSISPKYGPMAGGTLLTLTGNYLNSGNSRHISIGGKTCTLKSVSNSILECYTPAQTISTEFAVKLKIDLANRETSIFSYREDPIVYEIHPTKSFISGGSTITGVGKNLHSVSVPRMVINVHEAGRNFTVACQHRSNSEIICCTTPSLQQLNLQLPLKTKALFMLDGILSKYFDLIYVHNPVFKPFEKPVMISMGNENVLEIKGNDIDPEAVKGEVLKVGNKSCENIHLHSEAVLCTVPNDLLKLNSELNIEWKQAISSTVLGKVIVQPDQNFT
Description: as §2

[2] = target: T1, EGFR expressed on H292 cells; assay: flow cytometry on H292 cells, blocking of biotin-h.EGF (100 nM) binding to EGFR; EGFRxMET-136; blocking of EGF on H292 cells
Description: as §1

[3] = target: T4, EGFR and c-Met receptors co-expressed on A375 or H292 cells (human, UniProt P00533 25-1210; P08581 25-1390); assay: flow cytometry, binding to A375 cells (low EGFR and c-Met expression); A375 cells
T4 construct: whole, on cells; Not a complex; also called EGFR and c-Met positive tumor cells
Source text: (§3) A375 cells were human malignant melanoma cells and purchased from Addexbio, which were capable of low expression of EGFR and c-Met receptors. H292 cells were human lung adenocarcinoma cells and purchased from procell, which were capable of high expression of EGFR and c-Met receptors. HCC827 cells were human non-small cell lung cancer cells and purchased from the Cell Bank of the Chinese Academy of Sciences, which were capable of high expression of EGFR and c-Met receptors. The expanded cells were adjusted to an appropriate cell density, and added to a 96-well flow plate. After centrifugation, the gradiently diluted samples to be tested were added and incubated at 4° C. for 1 hour. The cells were washed twice with PBS, then a fluorescent secondary antibody, diluted to an appropriate concentration, was added, incubated at 4° C. for 30 min, and washed twice with PBS. The cells were resuspended by PBS, and detected on a CytoFlex flow cytometer, and corresponding MFI was calculated.

[4] = target: T4, EGFR and c-Met receptors co-expressed …; assay: flow cytometry, binding to A375 cells (low EGFR and c-Met expression)
Source text: as §3

[5] = target: T4, EGFR and c-Met receptors co-expressed …; assay: flow cytometry, binding to H292 cells (high EGFR and c-Met expression)
Source text: as §3

[6] = target: T1, EGFR expressed on H292 cells; assay: flow cytometry on H292 cells, blocking of biotin-h.EGF (100 nM) binding to EGFR; EGFRxMET-187; blocking of EGF on H292 cells
Description: as §1

IC50 [1]: 2.64 nM
B1: Amivantamab analog (bispecific antibody, human IgG1, kappa)
anti-EGFR heavy chain (EGFR-1 Fc): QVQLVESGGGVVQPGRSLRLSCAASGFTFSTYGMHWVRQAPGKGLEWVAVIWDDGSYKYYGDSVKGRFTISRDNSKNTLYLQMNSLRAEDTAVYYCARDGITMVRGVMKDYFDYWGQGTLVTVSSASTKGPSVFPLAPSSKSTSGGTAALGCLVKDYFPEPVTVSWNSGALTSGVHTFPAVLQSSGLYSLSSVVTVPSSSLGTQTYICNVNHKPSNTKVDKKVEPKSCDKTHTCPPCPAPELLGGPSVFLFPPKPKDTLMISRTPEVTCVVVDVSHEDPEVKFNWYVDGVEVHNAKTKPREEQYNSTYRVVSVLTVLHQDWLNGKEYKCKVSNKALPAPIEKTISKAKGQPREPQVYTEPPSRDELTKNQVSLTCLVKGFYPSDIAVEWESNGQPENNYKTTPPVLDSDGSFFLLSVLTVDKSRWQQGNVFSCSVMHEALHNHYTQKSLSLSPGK
anti-EGFR light chain: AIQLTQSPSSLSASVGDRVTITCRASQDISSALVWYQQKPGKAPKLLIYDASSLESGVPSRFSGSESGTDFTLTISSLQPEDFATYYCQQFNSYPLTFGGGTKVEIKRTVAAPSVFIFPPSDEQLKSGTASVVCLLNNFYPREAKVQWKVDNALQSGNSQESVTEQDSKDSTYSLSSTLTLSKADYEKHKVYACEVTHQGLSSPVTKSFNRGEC
anti-cMet control heavy chain (cMet-2 Fc): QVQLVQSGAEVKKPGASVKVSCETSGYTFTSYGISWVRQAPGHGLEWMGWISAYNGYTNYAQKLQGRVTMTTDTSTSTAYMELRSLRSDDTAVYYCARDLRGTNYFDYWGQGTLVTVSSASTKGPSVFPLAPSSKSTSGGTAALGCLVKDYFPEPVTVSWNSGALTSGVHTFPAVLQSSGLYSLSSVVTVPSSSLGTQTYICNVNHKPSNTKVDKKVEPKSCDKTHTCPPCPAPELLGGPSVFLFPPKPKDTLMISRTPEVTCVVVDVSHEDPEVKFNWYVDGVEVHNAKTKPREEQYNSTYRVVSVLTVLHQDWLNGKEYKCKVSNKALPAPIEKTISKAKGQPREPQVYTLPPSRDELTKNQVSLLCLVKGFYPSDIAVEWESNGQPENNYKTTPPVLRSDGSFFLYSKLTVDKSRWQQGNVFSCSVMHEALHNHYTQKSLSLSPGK
anti-cMet control light chain: DIQMTQSPSSVSASVGDRVTITCRASQGISNWLAWFQHKPGKAPKLLIYAASSLLSGVPSRFSGSGSGTDFTLTISSLQPEDFATYYCQQANSFPITFGQGTRLEIKRTVAAPSVFIFPPSDEQLKSGTASVVCLLNNFYPREAKVQWKVDNALQSGNSQESVTEQDSKDSTYSLSSTLTLSKADYEKHKVYACEVTHQGLSSPVTKSFNRGEC
notes: also called control antibody; control molecule Amivantamab

Kd (human c-MET protein): 0.0293 nM
koff (human c-MET protein): 6.71e-06 s⁻¹
kon (human c-MET protein): 229000 M⁻¹ s⁻¹
Kd (monkey c-MET protein): 1.16 nM
koff (monkey c-MET protein): 0.000426 s⁻¹
kon (monkey c-MET protein): 369000 M⁻¹ s⁻¹
B2: anti-c-MET antibody 136 (antibody, V domains shown)
VH: EVQLQESGPGLVKPSETLSLTCTVSGGSVTSVNYYWKWIRQPPGKGLEWIGYISYSGNTNYNPSLKSRVTISVDTSKNQFSLKLSSVTAADTAVYYCVRAPYYYMDVWSKGTTVTVSS
VL: DIVMTQSPSSVSASVGDRVTITCRASQGISSWLAWYQQKPGKAPKLLIYAVSSLQSGVPSRFSGSGSGTDFTLTISSLQPEDFATYFCQQANSFPLTFGGGTKVEIK
notes: Candidate from yeast display screening, as tested in the ForteBio assay

Kd (human c-MET protein): 1.68 nM
koff (human c-MET protein): 0.000369 s⁻¹
kon (human c-MET protein): 220000 M⁻¹ s⁻¹
Kd (monkey c-MET protein): 2.92 nM
koff (monkey c-MET protein): 0.000947 s⁻¹
kon (monkey c-MET protein): 324000 M⁻¹ s⁻¹
B3: anti-c-MET antibody 187 (antibody, V domains shown)
VH: ELQLQESGPGLVKPSETLSLTCTVSGGSISSSSYYWGWIRQSPGKGLEWIGSRYYSGNTYYNPSLKSRVTMSVDTSKNQFSLKLRSVTAADTAVYYCARQVYDYWRDWGQGALVTVSS
VL: B2 VL with K45N, V51A, S53N, Q55P, D70V, F87Y, A91S
notes: as for B2

IC50 [2]: 3.15 nM
B4: EGFRxMET-136 (bispecific antibody, human IgG1, kappa)
heavy 1: not shown
light 1: not shown
heavy 2: not shown
light 2: DIVMTQSPSSVSASVGDRVTITCRASQGISSWLAWYQQKPGKAPKLLIYAVSSLQSGVPSRFSGSGSGTDFTLTISSLQPEDFATYFCQQANSFPLTFGGGTKVEIKRTVAAPSVFIFPPSDEQLKSGTASVVCLLNNFYPREAKVQWKVDNALQSGNSQESVTEQDSKDSTYSLSSTLTLSKADYEKHKVYACEVTHQGLSSPVTKSFNRGEC
notes: 1+1 heterodimeric IgG1-type bispecific

EC50 [3]: 1.35 nM
B5: EGFRxMET-136 Afu (bispecific antibody, human IgG1, kappa)
heavy 1: not shown
light 1: B4 light 2 with T129R, T178R, T180Q
heavy 2: not shown
light 2: DIQLTQSPSSLSASVGDRVTITCRASQDISSALVWYQQKPGKAPKLLIYDASSLESGVPSRFSGSESGTDFTLTISSLQPEDFATYYCQQFNSYPLTFGGGTKVEIKRTVAAPSVFIFPPSDEELKSGTASVQCLLNNFYPREAKVQWKVDNALQSGNSQESVTEQDSKDSTYSLSSELTLSKADYEKHKVYACEVTHQGLSSPVTKSFNRGEC
modifications: afucosylated glycan

EC50 [4]: 1.05 nM
EC50 [5]: 1.46 nM
B6: EGFRxMET-187 Afu (bispecific antibody, human IgG1, kappa)
heavy 1: not shown
light 1: not shown
heavy 2: not shown
light 2: B4 light 2 with K45N, V51A, S53N, Q55P, D70V, F87Y, A91S
modifications: afucosylated glycan

IC50 [6]: 2.9 nM
B7: EGFRxMET-187 (bispecific antibody, human IgG1, kappa)
heavy 1: not shown
light 1: not shown
heavy 2: not shown
light 2: B4 light 2 with K45N, V51A, S53N, Q55P, D70V, F87Y, A91S
notes: as for B4

From patent US20250223366A1 (BIOTHEUS, published 2025)
